*: point of attachment. Biotin = O=C1N[C@H]2[C@H](CS[C@H]2CCCCC(=O)*)N1
B1: GST fusion of MMSC2 PDZ domain 4 (P10) (other)
chain: HVSKFSENSGLGISLEATVGHHFIRSVLPEGPVGHSGKLFSGDELLEVNGITLLGENHQDVVNILKELPIEVTMVCCR
notes: GST placed N-terminal as in pGEX vectors; also called PDZ domain number 4; not shown: glutathione S-transferase (GST) encoded by pGEX vectors (Pharmacia)
B2: GST fusion of MMSC2 PDZ domain 13 (P4) (other)
chain: KSITLERGPDGLGFSIVGGYGSPHGDLPIYVKTVFAKGAASEDGRLKRGDQIIAVNGQSLEGVTHEEAVAILKRTKGTVTLMVLS
notes: GST placed N-terminal as in pGEX vectors; also called PDZ domain number 13; not shown: glutathione S-transferase (GST) encoded by pGEX vectors (Pharmacia)
B3: GST fusion of MMSC2 PDZ domain 8 (P8) (other)
chain: HMIELEKGHSGLGLSLAGNKDRSRMSVFIVGIDPNGAAGKDGRLQIADELLEINGQILYGRSHQNASSIIKCAPSKVKIIFIR
notes: GST placed N-terminal as in pGEX vectors; also called PDZ domain number 8; not shown: glutathione S-transferase (GST) encoded by pGEX vectors (Pharmacia)
B4: GST fusion of MMSC2 PDZ domain 7 (P9) (other)
chain: RRVELWREPSKSLGISIVGGRGMGSRLSNGEVMRGIFIKHVLEDSPAGKNGTLKPGDRIVEVDGMDLRDASHEQAVEAIRKAGNPVVFMVQS
notes: GST placed N-terminal as in pGEX vectors; also called PDZ domain number 7; not shown: glutathione S-transferase (GST) encoded by pGEX vectors (Pharmacia)
B5: GST fusion of MMSC2 PDZ domain 10 (P1) (other)
chain: TTIEISKGRTGLGLSIVGGSDTLLGAIIIHEVYEEGAACKDGRLWAGDQILEVNGIDLRKATHDEAINVLRQTPQRVRLTLYR
notes: GST placed N-terminal as in pGEX vectors; also called PDZ domain number 10; not shown: glutathione S-transferase (GST) encoded by pGEX vectors (Pharmacia)
B6: GST fusion of MMSC2 PDZ domain 3 (P13) (other)
chain: FDVELTKNVQGLGITIAGYIGDKKLEPSGIFVKSITKSSAVEHDGRIQIGDQIIAVDGTNLQGFTNQQAVEVLRHTGQTVLLTLMR
notes: GST placed N-terminal as in pGEX vectors; also called PDZ domain number 3; not shown: glutathione S-transferase (GST) encoded by pGEX vectors (Pharmacia)
B7: GST fusion of MMSC2 PDZ domain 6 (P11) (other)
chain: RTINIAKGNSSLGMTVSANKDGLGMIVRSIIHGGAISRDGRIAIGDCILSINEESTISVTNAQARAMLRRHSLIGPDIKITYVP
notes: GST placed N-terminal as in pGEX vectors; also called PDZ domain number 6; not shown: glutathione S-transferase (GST) encoded by pGEX vectors (Pharmacia)
B8: GST fusion of MMSC2 PDZ domain 11 (P2) (other)
chain: LTIELQKKPGKGLGLSIVGKRNDTGVFVSDIVKGGIADADGRLMQGDQILMVNGEDVRNATQEAVAALLKCSLGTVTLEVGR
notes: GST placed N-terminal as in pGEX vectors; also called PDZ domain number 11; not shown: glutathione S-transferase (GST) encoded by pGEX vectors (Pharmacia)
B9: GST fusion of MMSC2 PDZ domain 2 (P14) (other)
chain: ETIELVNDGSGLGFGIIGGKATGVIVKTILPGGVADQHGRLCSGDHILKIGDTDLAGMSSEQVAQVLRQCGNRVKLMIAR
notes: GST placed N-terminal as in pGEX vectors; also called PDZ domain number 2; not shown: glutathione S-transferase (GST) encoded by pGEX vectors (Pharmacia)
B10: GST fusion of MMSC2 PDZ domain 1 (P15) (other)
chain: EVFELLKPPSGGLGFSVVGLRSENRGELGIFVQEIQEGSVAHRDGRLKETDQILAINGQALDQTITHQQAISILQKAKDTVQLVIAR
notes: GST placed N-terminal as in pGEX vectors; Adsorbed to ELISA wells; also called PDZ domain number 1; not shown: glutathione S-transferase (GST) encoded by pGEX vectors (Pharmacia)
B11: GST fusion of MMSC2 PDZ domain 12 (P3) (other)
chain: RTVEMKKGPTDSLGISIAGGVGSPLGDVPIFIAMMHPTGVAAQTQKLRVGDRIVTICGTSTEGMTHTQAVNLLKNASGSIEMQVVA
notes: GST placed N-terminal as in pGEX vectors; also called PDZ domain number 12; not shown: glutathione S-transferase (GST) encoded by pGEX vectors (Pharmacia)
B12: GST fusion of MMSC2 PDZ domain 5 (P12) (other)
chain: QHIELEKGSKGLGFSILDYQDPIDPASTVIIIRSLVPGGIAEKDGRLLPGDRLMFVNDVNLENSSLEEAVEALKGAPSGTVRIGVAK
notes: GST placed N-terminal as in pGEX vectors; also called PDZ domain number 5; not shown: glutathione S-transferase (GST) encoded by pGEX vectors (Pharmacia)
B13: GST fusion of MMSC2 PDZ domain 9 (P7) (other)
chain: AVDLSSFKNVQHLELPKDQGGLGIAISEEDTLSGVIIKSLTEHGVAATDGRLKVGDQILAVDDEIVVGYPIEKFISLLKTAKMTVKLTIHA
notes: GST placed N-terminal as in pGEX vectors; also called PDZ domain number 9; not shown: glutathione S-transferase (GST) encoded by pGEX vectors (Pharmacia)
B14: MMAC1.388-403: biotin-ENEPFDEDQHTQITKV-COOH (peptide)
peptide: Biotin-ENEPFDEDQHTQITKV-OH
SMILES: CC[C@H](C)[C@H](NC(=O)[C@H](CCC(N)=O)NC(=O)[C@@H](NC(=O)[C@H](Cc1c[nH]cn1)NC(=O)[C@H](CCC(N)=O)NC(=O)[C@H](CC(=O)O)NC(=O)[C@H](CCC(=O)O)NC(=O)[C@H](CC(=O)O)NC(=O)[C@H](Cc1ccccc1)NC(=O)[C@@H]1CCCN1C(=O)[C@H](CCC(=O)O)NC(=O)[C@H](CC(N)=O)NC(=O)[C@H](CCC(=O)O)NC(=O)CCCC[C@@H]1SC[C@@H]2NC(=O)N[C@@H]21)[C@@H](C)O)C(=O)N[C@H](C(=O)N[C@@H](CCCCN)C(=O)N[C@H](C(=O)O)C(C)C)[C@@H](C)O
notes: also called MMAC1 C-terminal PDZ peptide

Molecular target: B14
Assay: ELISA, GST-PDZ domain on plate, biotin-peptide/streptavidin-alkaline phosphatase complex in solution
Description: (§1) cDNAs encoding each of the MMSC2 PDZ domains (amino acid residues identified in Table 1), and any desired control proteins, were generated by PCR and subcloned as glutathione S-transferase (GST) fusions in pGEX vectors (Pharmacia). After sequencing to confirm expression construct integrity, the resulting clones were expressed in E. coli and the desired fusion proteins isolated with glutathione-agarose and recovered with glutathione elution. These fusion proteins or control proteins were then adsorbed to different wells of a 96-well ELISA plate and remaining sites blocked with BSA. Synthetic commercially synthesized peptides encoding the desired PDZ-binding domain (i.e., the 16 C-terminal amino acids of MMAC1, or the C-terminal peptide sequences of interacting proteins identified by the approach of Example 2, or the C-terminal peptide sequences identified by the approach of Example 3), or a control peptide, and biotinylated at the amino-terminus, were pre-bound to streptavidin-alkaline phosphatase in a 4:1 molar ratio. The biotinylated peptide streptavidin-alkaline phosphatase complexes were then blocked with free biotin. These pre-bound peptide streptavidin-alkaline phosphatase complexes were then incubated with the immobilized PDZ domains in wash buffer containing PBS, BSA and triton-X100. Unbound material was removed with repeated washes. Bound peptide/streptavidin-alkaline phosphatase complex was then quantitated by a colorimetric phosphatase assay read on a 96-well plate reader. The following peptides were used in the initial study:
(§2) The relative affinity of each of the 13 PDZ domains encoded by MMSC2 for an MMAC1 C-terminal PDZ peptide as measured by an ELISA assay is set forth in Table 2.
With B1 the A405 was 0.024 A405.
B2 gave an A405 of 0.456 A405.
For B3, the A405 was 0.006 A405.
B4 showed an A405 of 0.667 A405.
B5 was tested, and the A405 was 0.174 A405.
For B6, the A405 was 0.006 A405.
B7 showed an A405 of 0.016 A405.
Binder B8 has an A405 of 0.012 A405.
Binder B9 has an A405 of 0.001 A405.
In the case of B10, the A405 is reported as 0.011 A405.
Binder B11 has an A405 of 0.003 A405.
B12 gave an A405 of 0 A405.
For B13, the A405 was 0.017 A405.

Molecular target: T1, SH3 binding peptide: biotin-SGSGILAPPVPPRNTR-COOH (SMILES …)
T1 peptide: Biotin-SGSGILAPPVPPRNTR-OH
Assay: as above
Description: as §1, §2
Work on B1 yielded an A405 of 0.01 A405.
B2 gave an A405 of 0.006 A405.
For B3, the A405 was 0.008 A405.
Binder B4 has an A405 of 0.006 A405.
With B5 the A405 was 0.002 A405.
In the case of B6, the A405 is reported as 0.008 A405.
With B7 the A405 was 0.017 A405.
For B8, the A405 was 0.009 A405.
With B9 the A405 was 0.006 A405.
With B10 the A405 was 0.007 A405.
With B11 the A405 was 0.011 A405.
With B12 the A405 was 0.005 A405.
Work on B13 yielded an A405 of 0.009 A405.

What follows are binders tested against B2 (assay: summary of the PDZ binding assay).
B14: binds.

These binders were tested against B4 (assay: summary of the PDZ binding assay).
B14: binds.

What follows are binders tested against B5 (assay: summary of the PDZ binding assay).
B14: binds.
